Here are results for two proteins from article PMC6331642.

Series [1] concerns the target P35670. As to the kind of experiment: SEC-MALS; apo-WLN4 after incubation with TM; Superdex 75 10/300 GL, 50 mM MES pH 6.0, 150 mM NaCl, room temperature.
The target of series [2] is P35670. As to the kind of experiment: SEC-MALS; Cu-WLN4 after incubation with TM; Superdex 75 10/300 GL, 50 mM MES pH 6.0, 150 mM NaCl, room temperature.
Series [3] has as its target O00244. As to the kind of experiment: SEC-MALS; apo-Atox1 after reaction with TM, with 4.5 mM reducing agents. Background: SEC sorts molecules by how far they enter the pores of the column.
Series [4] has as its target O00244. As to the kind of experiment: SEC-MALS; Cu-Atox1 after reaction with TM, with 4.5 mM reducing agents.

B1: WLN4, the fourth metal-binding domain of Wilson's disease protein (ATP7B) (protein)
chain: TCSTTLIAIAGMTCASCVHSIEGMISQLEGVQQISVSLAEGTATVLYNPSVISPEELRAAIEDMGFEASVVS
B1: the N with TM in the series with P35670 [1] and with P35670 [2] was 2 each time.

B2: Atox1 copper chaperone (protein)
chain: MPKHEFSVDMTCGGCAEAVSRVLNKLGGVKYDIDLPNKKVCIESEHSMDTLLATLKKTGKTVSYLGLE
For B2, the “N with TM” value is “both apo-Atox1 and Cu-Atox1 generated dimeric adducts following reaction with TM” with O00244 [3]; “both apo-Atox1 and Cu-Atox1 generated dimeric adducts following reaction with TM” with O00244 [4].
